Holding throughout (conditions): remark: other sources report otherwise
Experiment [1] concerns the target T1, biotinylated full-length human IGF-I receptor, captured on streptavidin (human), P08069. Briefly: similar ELISA binding titration on human IGF-I receptor. (In general: ELISA stands for enzyme-linked immunosorbent assay.)
The target of experiment [2] is T1, biotinylated full-length human IGF-I …. Briefly: ELISA titration on biotinylated human IGF-I receptor captured on streptavidin; non-linear regression for one-site binding.
Experiment [3] has as its target human IGF-I receptor on human tumor cells (human), P08069. Briefly: IGF-I displacement assay on MCF-7 cells at 37° C., 10-100 µg/mL antibody, capture ELISA of the lysate.
Experiment [4] shares this target. Briefly: IGF-I displacement assay on MCF-7 cells at 4° C., 10-100 µg/mL antibody, capture ELISA of the lysate.

The values below come from patent US20100260678A1.

B1: Fab fragment of EM164 antibody (Fab, V domains shown)
VH: QVQLQQSGAELVKPGASVKLSCKASGYTFTSYWMHWVKQRPGQGLEWIGEINPSNGRTNYNEKFKRKATLTVDKSSSTAYMQLSSLTSEDSAVYYFARGRPDYYGSSKWYFDVWGAGTTVTVS
VL: DVLMTQTPLSLPVSLGDQASISCRSSQSIVHSNVNTYLEWYLQKPGQSPKLLIYKVSNRFSGVPDRFSGSGSGTDFTLRISRVEAEDLGIYYCFQGSHVPPTFGGGTKLEIKR
modifications: here or on the partner: biotinylated with PEO-maleimide-biotin reagent (sites not given)
By Kd is commonly meant the concentration at which binding is half-saturated. For B1, the Kd in experiment [1] stood at 300 pM.

B2: murine anti-IGF-I receptor antibody EM164 (antibody, V domains shown)
VH: QVQLQQSGAELVKPGASVKLSCKASGYTFTSYWMHWVKQRPGQGLEWIGEINPSNGRTNYNEKFKRKATLTVDKSSSTAYMQLSSLTSEDSAVYYFARGRPDYYGSSKWYFDVWGAGTTVTVS
VL: DVLMTQTPLSLPVSLGDQASISCRSSQSIVHSNVNTYLEWYLQKPGQSPKLLIYKVSNRFSGVPDRFSGSGSGTDFTLRISRVEAEDLGIYYCFQGSHVPPTFGGGTKLEIKR
modifications: here or on the partner: biotinylated with PEO-maleimide-biotin reagent (sites not given)
The molecule B2 came in with a Kd in experiment [2] of 100 pM. The percent displacement of pre-bound biotinylated IGF-I in experiment [3] came to 90%; in experiment [4] it was 50%.
